Measured values as given in publication PMC9482650, “Quantitative fragmentomics allow affinity mapping of interactomes” (Nature Communications, 2022).
Each block holds one binder with its values, some of them ahead of it.

How the values were obtained:
Experiment in all cases: holdup assay
Design in all cases: key: below the threshold = too weak to quantify, mostly under pKd 3.1 to 4
ARHGAP21, Q5T5U3 = molecular target: T1, ARHGAP21, Q5T5U3
T1 sequence (Q5T5U3 45-169, limits assumed, looked up): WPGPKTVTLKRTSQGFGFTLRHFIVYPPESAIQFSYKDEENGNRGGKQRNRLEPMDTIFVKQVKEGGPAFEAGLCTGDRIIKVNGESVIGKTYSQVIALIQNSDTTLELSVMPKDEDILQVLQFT

RHPN1, Q8TCX5 = molecular target: T2, RHPN1, Q8TCX5
T2 sequence (Q8TCX5 508-602, limits assumed, looked up): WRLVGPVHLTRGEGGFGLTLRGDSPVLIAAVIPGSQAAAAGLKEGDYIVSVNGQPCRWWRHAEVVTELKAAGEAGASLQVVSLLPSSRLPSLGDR

APBA3_1, O96018 = molecular target: T3, APBA3_1, O96018
T3 sequence (O96018 389-490, limits assumed, looked up): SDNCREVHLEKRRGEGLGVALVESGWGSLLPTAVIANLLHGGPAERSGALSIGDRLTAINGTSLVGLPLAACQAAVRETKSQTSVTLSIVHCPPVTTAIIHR

SYNJ2BP, P57105 = molecular target: T4, SYNJ2BP, P57105
T4 sequence (P57105 8-110, limits assumed, looked up): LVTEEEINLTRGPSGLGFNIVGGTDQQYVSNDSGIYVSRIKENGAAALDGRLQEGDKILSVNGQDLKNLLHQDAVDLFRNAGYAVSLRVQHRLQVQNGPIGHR

SNX27, Q96L92 = molecular target: SNX27, Q96L92
FRMPD2_2, Q68DX3 = molecular target: FRMPD2_2, Q68DX3
Sequence of FRMPD2_2, Q68DX3 (Q68DX3 944-1038): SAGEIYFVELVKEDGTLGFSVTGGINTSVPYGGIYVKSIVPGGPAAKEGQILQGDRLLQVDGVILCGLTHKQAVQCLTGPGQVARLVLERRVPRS

LNX1_2, Q8TBB1 = molecular target: LNX1_2, Q8TBB1
Sequence of LNX1_2, Q8TBB1 (Q8TBB1 371-470): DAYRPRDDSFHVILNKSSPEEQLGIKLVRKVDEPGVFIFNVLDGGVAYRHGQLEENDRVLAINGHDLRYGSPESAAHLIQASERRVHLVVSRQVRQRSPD

FRMPD4, Q14CM0 = molecular target: FRMPD4, Q14CM0
Sequence of FRMPD4, Q14CM0 (Q14CM0 67-160): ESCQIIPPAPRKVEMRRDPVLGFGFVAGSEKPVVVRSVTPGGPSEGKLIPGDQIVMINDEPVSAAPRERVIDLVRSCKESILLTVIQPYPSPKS

GIPC2, Q8TF65 = molecular target: GIPC2, Q8TF65
Sequence of GIPC2, Q8TF65 (Q8TF65 112-203): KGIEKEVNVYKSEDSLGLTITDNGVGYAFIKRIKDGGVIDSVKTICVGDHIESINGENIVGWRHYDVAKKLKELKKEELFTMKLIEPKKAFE

DLG5_1, Q8TDM6 = molecular target: DLG5_1, Q8TDM6
Sequence of DLG5_1, Q8TDM6 (Q8TDM6 617-713): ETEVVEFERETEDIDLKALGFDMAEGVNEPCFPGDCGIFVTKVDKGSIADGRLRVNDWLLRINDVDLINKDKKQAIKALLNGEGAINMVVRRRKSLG

DLG4_2, P78352 = molecular target: DLG4_2, P78352
Sequence of DLG4_2, P78352 (P78352 155-259): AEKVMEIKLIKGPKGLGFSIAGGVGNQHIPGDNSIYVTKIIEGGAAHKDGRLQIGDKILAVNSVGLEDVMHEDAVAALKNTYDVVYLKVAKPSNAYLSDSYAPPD

LRRC7, Q96NW7 = molecular target: T5, LRRC7, Q96NW7
T5 sequence (Q96NW7 1440-1537, limits assumed, looked up): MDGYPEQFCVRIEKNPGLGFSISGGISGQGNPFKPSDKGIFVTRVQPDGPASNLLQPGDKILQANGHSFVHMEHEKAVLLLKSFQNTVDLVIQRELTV

DLG3_3, Q92796 = molecular target: T6, DLG3_3, Q92796
T6 sequence (Q92796 374-475, limits assumed, looked up): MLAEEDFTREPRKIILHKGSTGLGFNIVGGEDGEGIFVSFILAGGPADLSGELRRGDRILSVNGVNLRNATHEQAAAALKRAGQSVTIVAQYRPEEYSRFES

SCRIB_1, Q14160 = molecular target: SCRIB_1, Q14160
Sequence of SCRIB_1, Q14160 (Q14160 718-814): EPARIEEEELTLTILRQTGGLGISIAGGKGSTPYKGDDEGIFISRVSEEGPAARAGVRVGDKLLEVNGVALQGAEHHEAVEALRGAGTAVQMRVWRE

DFNB31_2, Q9P202 = molecular target: T7, DFNB31_2, Q9P202
T7 sequence (Q9P202 274-371, limits assumed, looked up): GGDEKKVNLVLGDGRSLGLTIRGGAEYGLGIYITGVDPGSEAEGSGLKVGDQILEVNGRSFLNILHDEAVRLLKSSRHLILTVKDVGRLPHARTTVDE

LNX2_3, Q8N448 = molecular target: T8, LNX2_3, Q8N448
T8 sequence (Q8N448 463-564, limits assumed, looked up): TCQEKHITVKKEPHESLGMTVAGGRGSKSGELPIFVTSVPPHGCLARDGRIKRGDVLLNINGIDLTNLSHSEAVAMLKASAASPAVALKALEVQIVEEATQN

NHERF3_4, Q5T2W1 = molecular target: T9, NHERF3_4, Q5T2W1
T9 sequence (Q5T2W1 373-468, limits assumed, looked up): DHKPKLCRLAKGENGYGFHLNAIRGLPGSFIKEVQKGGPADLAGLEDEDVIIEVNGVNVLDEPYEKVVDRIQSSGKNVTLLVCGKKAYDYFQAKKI

GRIP2_6, Q9C0E4 = molecular target: GRIP2_6, Q9C0E4
Sequence of GRIP2_6, Q9C0E4 (Q9C0E4 648-740): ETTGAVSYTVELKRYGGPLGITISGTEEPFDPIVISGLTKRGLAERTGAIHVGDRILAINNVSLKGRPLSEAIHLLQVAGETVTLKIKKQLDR

DLG4_3, P78352 = molecular target: DLG4_3, P78352
Sequence of DLG4_3, P78352 (P78352 306-403): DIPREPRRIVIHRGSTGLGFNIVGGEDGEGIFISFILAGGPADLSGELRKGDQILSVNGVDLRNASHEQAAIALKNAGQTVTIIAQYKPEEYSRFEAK

NHERF3_1, Q5T2W1 = molecular target: T10, NHERF3_1, Q5T2W1
T10 sequence (Q5T2W1 4-100, limits assumed, looked up): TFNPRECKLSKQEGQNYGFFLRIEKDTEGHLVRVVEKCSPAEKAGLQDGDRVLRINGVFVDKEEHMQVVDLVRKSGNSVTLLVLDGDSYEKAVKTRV

GRIP2_3, Q9C0E4 = molecular target: GRIP2_3, Q9C0E4
Sequence of GRIP2_3, Q9C0E4 (Q9C0E4 238-339): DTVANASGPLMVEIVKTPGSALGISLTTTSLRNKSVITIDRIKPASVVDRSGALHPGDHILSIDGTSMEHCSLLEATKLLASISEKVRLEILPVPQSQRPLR

NHERF4_4, Q86UT5 = molecular target: NHERF4_4, Q86UT5
Sequence of NHERF4_4, Q86UT5 (Q86UT5 464-550): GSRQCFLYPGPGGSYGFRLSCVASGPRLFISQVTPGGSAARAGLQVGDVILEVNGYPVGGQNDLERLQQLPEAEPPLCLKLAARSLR

GORASP2, Q9H8Y8 = molecular target: GORASP2, Q9H8Y8
DLG4_1, P78352 = molecular target: DLG4_1, P78352
Sequence of DLG4_1, P78352 (P78352 62-152): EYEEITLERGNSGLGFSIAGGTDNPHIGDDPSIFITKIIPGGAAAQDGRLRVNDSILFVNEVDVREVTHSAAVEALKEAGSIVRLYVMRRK

MAST2, Q6P0Q8 = molecular target: MAST2, Q6P0Q8
Sequence of MAST2, Q6P0Q8 (Q6P0Q8 1099-1202): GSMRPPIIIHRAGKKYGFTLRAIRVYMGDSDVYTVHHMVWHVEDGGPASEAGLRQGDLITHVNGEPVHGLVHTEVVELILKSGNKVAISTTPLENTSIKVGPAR

MAGI3_2, Q5TCQ9 = molecular target: MAGI3_2, Q5TCQ9
Sequence of MAGI3_2, Q5TCQ9 (Q5TCQ9 398-503): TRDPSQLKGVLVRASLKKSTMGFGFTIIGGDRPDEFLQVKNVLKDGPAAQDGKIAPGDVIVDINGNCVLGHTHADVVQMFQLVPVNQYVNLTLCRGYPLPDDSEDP

DLG1_2, Q12959 = molecular target: DLG1_2, Q12959
Sequence of DLG1_2, Q12959 (Q12959 314-412): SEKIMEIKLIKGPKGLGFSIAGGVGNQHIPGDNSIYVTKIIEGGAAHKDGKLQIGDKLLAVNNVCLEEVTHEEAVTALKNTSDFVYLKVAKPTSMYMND

[1] = plain residues with an end cap or a label only (N-terminal biotin on a linker: ttds)
[2] = plain residues with an end cap or a label only (N-terminal biotin on a linker: ahx)
[3] = plain residues with an end cap or a label only (N-terminal biotin on a linker: ado-ado)

B1: RALBP1, Q15311 (peptide)
chain: PSRDRKETSI
pKd (ARHGAP21, Q5T5U3; [1]): below the threshold
pKd (RHPN1, Q8TCX5; [1]): 3.92
pKd (APBA3_1, O96018; [1]): below the threshold
pKd (SYNJ2BP, P57105; [1]): 4.7
pKd (SNX27, Q96L92; [1]): 4.23
pKd (FRMPD2_2, Q68DX3; [1]): 3.31
pKd (LNX1_2, Q8TBB1; [1]): below the threshold
pKd (FRMPD4, Q14CM0; [1]): below the threshold
pKd (GIPC2, Q8TF65; [1]): 3.58
pKd (DLG5_1, Q8TDM6; [1]): below the threshold
pKd (DLG4_2, P78352; [1]): 4.58
pKd (LRRC7, Q96NW7; [1]): below the threshold
pKd (DLG3_3, Q92796; [1]): 4.77
pKd (SCRIB_1, Q14160; [1]): 4.49
pKd (DFNB31_2, Q9P202; [1]): below the threshold
pKd (LNX2_3, Q8N448; [1]): below the threshold
pKd (NHERF3_4, Q5T2W1; [1]): below the threshold
pKd (GRIP2_6, Q9C0E4; [1]): 3.36
pKd (DLG4_3, P78352; [1]): 4.87
pKd (NHERF3_1, Q5T2W1; [1]): 3.68
pKd (GRIP2_3, Q9C0E4; [1]): below the threshold
pKd (NHERF4_4, Q86UT5; [1]): below the threshold
pKd (GORASP2, Q9H8Y8; [1]): below the threshold
pKd (DLG4_1, P78352; [1]): 3.97
pKd (MAST2, Q6P0Q8; [1]): 4.88
pKd (MAGI3_2, Q5TCQ9; [1]): 4.76
pKd (DLG1_2, Q12959; [1]): 4.7

B2: CNTNAP4, Q9C0A0 (peptide)
chain: VNENQKEYFF
pKd (ARHGAP21, Q5T5U3; [2]): 3.91
pKd (RHPN1, Q8TCX5; [2]): below the threshold
pKd (APBA3_1, O96018; [2]): below the threshold
pKd (SYNJ2BP, P57105; [2]): below the threshold
pKd (SNX27, Q96L92; [2]): 3.83
pKd (FRMPD2_2, Q68DX3; [2]): below the threshold
pKd (LNX1_2, Q8TBB1; [2]): below the threshold
pKd (FRMPD4, Q14CM0; [2]): 4.65
pKd (GIPC2, Q8TF65; [2]): below the threshold
pKd (DLG5_1, Q8TDM6; [2]): below the threshold
pKd (DLG4_2, P78352; [2]): below the threshold
pKd (LRRC7, Q96NW7; [2]): below the threshold
pKd (DLG3_3, Q92796; [2]): below the threshold
pKd (SCRIB_1, Q14160; [2]): below the threshold
pKd (DFNB31_2, Q9P202; [2]): below the threshold
pKd (LNX2_3, Q8N448; [2]): below the threshold
pKd (NHERF3_4, Q5T2W1; [2]): below the threshold
pKd (GRIP2_6, Q9C0E4; [2]): 5.04
pKd (DLG4_3, P78352; [2]): below the threshold
pKd (NHERF3_1, Q5T2W1; [2]): 4.91
pKd (GRIP2_3, Q9C0E4; [2]): below the threshold
pKd (NHERF4_4, Q86UT5; [2]): 4.1
pKd (GORASP2, Q9H8Y8; [2]): below the threshold
pKd (DLG4_1, P78352; [2]): below the threshold
pKd (MAST2, Q6P0Q8; [2]): 5.08
pKd (MAGI3_2, Q5TCQ9; [2]): below the threshold
pKd (DLG1_2, Q12959; [2]): below the threshold

B3: USH1C, Q9Y6N9 (peptide)
chain: KEYDDELTFF
pKd (ARHGAP21, Q5T5U3; [2]): 3.87
pKd (RHPN1, Q8TCX5; [2]): 4.11
pKd (APBA3_1, O96018; [2]): below the threshold
pKd (SYNJ2BP, P57105; [2]): below the threshold
pKd (SNX27, Q96L92; [2]): 4.51
pKd (FRMPD2_2, Q68DX3; [2]): below the threshold
pKd (LNX1_2, Q8TBB1; [2]): below the threshold
pKd (FRMPD4, Q14CM0; [2]): 4.42
pKd (GIPC2, Q8TF65; [2]): below the threshold
pKd (DLG5_1, Q8TDM6; [2]): below the threshold
pKd (DLG4_2, P78352; [2]): below the threshold
pKd (LRRC7, Q96NW7; [2]): below the threshold
pKd (DLG3_3, Q92796; [2]): below the threshold
pKd (SCRIB_1, Q14160; [2]): below the threshold
pKd (DFNB31_2, Q9P202; [2]): below the threshold
pKd (LNX2_3, Q8N448; [2]): below the threshold
pKd (NHERF3_4, Q5T2W1; [2]): 3.8
pKd (GRIP2_6, Q9C0E4; [2]): below the threshold
pKd (DLG4_3, P78352; [2]): below the threshold
pKd (NHERF3_1, Q5T2W1; [2]): 4.27
pKd (GRIP2_3, Q9C0E4; [2]): below the threshold
pKd (NHERF4_4, Q86UT5; [2]): below the threshold
pKd (GORASP2, Q9H8Y8; [2]): 3.57
pKd (DLG4_1, P78352; [2]): below the threshold
pKd (MAST2, Q6P0Q8; [2]): 5.3
pKd (MAGI3_2, Q5TCQ9; [2]): below the threshold
pKd (DLG1_2, Q12959; [2]): below the threshold

Other lines, results leading:

pKd (ARHGAP21, Q5T5U3; [3]): below the threshold
pKd (RHPN1, Q8TCX5; [3]): 3.55
pKd (APBA3_1, O96018; [3]): below the threshold
pKd (SYNJ2BP, P57105; [3]): below the threshold
pKd (SNX27, Q96L92; [3]): 5.18
pKd (FRMPD2_2, Q68DX3; [3]): below the threshold
pKd (LNX1_2, Q8TBB1; [3]): below the threshold
pKd (FRMPD4, Q14CM0; [3]): below the threshold
pKd (GIPC2, Q8TF65; [3]): below the threshold
pKd (DLG5_1, Q8TDM6; [3]): below the threshold
pKd (DLG4_2, P78352; [3]): below the threshold
pKd (LRRC7, Q96NW7; [3]): below the threshold
pKd (DLG3_3, Q92796; [3]): below the threshold
pKd (SCRIB_1, Q14160; [3]): 3.5
pKd (DFNB31_2, Q9P202; [3]): below the threshold
pKd (LNX2_3, Q8N448; [3]): below the threshold
pKd (NHERF3_4, Q5T2W1; [3]): below the threshold
pKd (GRIP2_6, Q9C0E4; [3]): below the threshold
pKd (DLG4_3, P78352; [3]): below the threshold
pKd (NHERF3_1, Q5T2W1; [3]): 5.23
pKd (GRIP2_3, Q9C0E4; [3]): below the threshold
pKd (NHERF4_4, Q86UT5; [3]): below the threshold
pKd (GORASP2, Q9H8Y8; [3]): below the threshold
pKd (DLG4_1, P78352; [3]): 3.49
pKd (MAST2, Q6P0Q8; [3]): 5.51
pKd (MAGI3_2, Q5TCQ9; [3]): below the threshold
pKd (DLG1_2, Q12959; [3]): below the threshold
B4: SLC1A3, P43003 (peptide)
chain: EKPIDSETKM

pKd (ARHGAP21, Q5T5U3; [3]): below the threshold
pKd (RHPN1, Q8TCX5; [3]): 3.75
pKd (APBA3_1, O96018; [3]): below the threshold
pKd (SYNJ2BP, P57105; [3]): 3.5
pKd (SNX27, Q96L92; [3]): 4.2
pKd (FRMPD2_2, Q68DX3; [3]): below the threshold
pKd (LNX1_2, Q8TBB1; [3]): below the threshold
pKd (FRMPD4, Q14CM0; [3]): below the threshold
pKd (GIPC2, Q8TF65; [3]): 3.68
pKd (DLG5_1, Q8TDM6; [3]): below the threshold
pKd (DLG4_2, P78352; [3]): below the threshold
pKd (LRRC7, Q96NW7; [3]): below the threshold
pKd (DLG3_3, Q92796; [3]): below the threshold
pKd (SCRIB_1, Q14160; [3]): below the threshold
pKd (DFNB31_2, Q9P202; [3]): below the threshold
pKd (LNX2_3, Q8N448; [3]): below the threshold
pKd (NHERF3_4, Q5T2W1; [3]): below the threshold
pKd (GRIP2_6, Q9C0E4; [3]): below the threshold
pKd (DLG4_3, P78352; [3]): below the threshold
pKd (NHERF3_1, Q5T2W1; [3]): below the threshold
pKd (GRIP2_3, Q9C0E4; [3]): below the threshold
pKd (NHERF4_4, Q86UT5; [3]): below the threshold
pKd (GORASP2, Q9H8Y8; [3]): below the threshold
pKd (DLG4_1, P78352; [3]): below the threshold
pKd (MAST2, Q6P0Q8; [3]): 3.81
pKd (MAGI3_2, Q5TCQ9; [3]): below the threshold
pKd (DLG1_2, Q12959; [3]): below the threshold
B5: FMNL3, Q8IVF7 (peptide)
chain: DAAHHDESNC
